T1: human IL-36R overexpressed on 293T-hIL36R-NFκB cells (human, UniProt Q9HB29 20-575)
T1 sequence: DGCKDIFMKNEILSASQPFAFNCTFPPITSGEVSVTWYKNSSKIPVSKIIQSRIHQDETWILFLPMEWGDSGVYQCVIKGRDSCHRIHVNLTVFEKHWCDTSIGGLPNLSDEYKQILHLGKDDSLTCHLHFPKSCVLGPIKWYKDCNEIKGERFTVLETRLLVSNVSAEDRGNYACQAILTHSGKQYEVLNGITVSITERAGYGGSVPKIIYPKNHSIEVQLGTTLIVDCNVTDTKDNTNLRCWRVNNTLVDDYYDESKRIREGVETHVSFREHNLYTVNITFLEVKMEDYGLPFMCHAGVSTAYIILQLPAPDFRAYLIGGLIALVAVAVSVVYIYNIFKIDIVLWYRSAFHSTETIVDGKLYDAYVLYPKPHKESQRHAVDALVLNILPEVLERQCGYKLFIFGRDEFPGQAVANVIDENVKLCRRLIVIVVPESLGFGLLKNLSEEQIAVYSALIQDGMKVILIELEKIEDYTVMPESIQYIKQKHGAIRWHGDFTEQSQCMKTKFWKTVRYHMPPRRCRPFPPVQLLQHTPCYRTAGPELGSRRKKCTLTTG

T2: cynomolgus IL-36R overexpressed on 293T-CynoIL36R-NFκB cells (cynomolgus monkey)
T2 chain: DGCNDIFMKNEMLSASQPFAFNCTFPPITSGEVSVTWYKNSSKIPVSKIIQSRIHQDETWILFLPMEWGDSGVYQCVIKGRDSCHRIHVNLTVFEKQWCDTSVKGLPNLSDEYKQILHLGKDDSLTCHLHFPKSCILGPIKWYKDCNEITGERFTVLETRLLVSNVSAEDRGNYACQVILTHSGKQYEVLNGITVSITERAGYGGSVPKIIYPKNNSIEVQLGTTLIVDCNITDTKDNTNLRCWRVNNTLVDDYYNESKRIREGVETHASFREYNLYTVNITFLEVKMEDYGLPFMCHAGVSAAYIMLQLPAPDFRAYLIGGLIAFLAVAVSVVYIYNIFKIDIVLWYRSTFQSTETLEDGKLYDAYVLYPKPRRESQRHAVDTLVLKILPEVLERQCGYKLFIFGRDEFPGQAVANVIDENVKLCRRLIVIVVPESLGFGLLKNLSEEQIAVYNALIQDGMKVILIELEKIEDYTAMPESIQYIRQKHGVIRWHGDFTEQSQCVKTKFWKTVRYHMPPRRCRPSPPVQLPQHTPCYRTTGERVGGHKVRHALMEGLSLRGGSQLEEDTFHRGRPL

T3: IL-36R naturally expressed on OVCAR8 cells and on normal human epidermal keratinocytes (NHK cells) (human, UniProt Q9HB29 20-575)
T3 sequence (looked up): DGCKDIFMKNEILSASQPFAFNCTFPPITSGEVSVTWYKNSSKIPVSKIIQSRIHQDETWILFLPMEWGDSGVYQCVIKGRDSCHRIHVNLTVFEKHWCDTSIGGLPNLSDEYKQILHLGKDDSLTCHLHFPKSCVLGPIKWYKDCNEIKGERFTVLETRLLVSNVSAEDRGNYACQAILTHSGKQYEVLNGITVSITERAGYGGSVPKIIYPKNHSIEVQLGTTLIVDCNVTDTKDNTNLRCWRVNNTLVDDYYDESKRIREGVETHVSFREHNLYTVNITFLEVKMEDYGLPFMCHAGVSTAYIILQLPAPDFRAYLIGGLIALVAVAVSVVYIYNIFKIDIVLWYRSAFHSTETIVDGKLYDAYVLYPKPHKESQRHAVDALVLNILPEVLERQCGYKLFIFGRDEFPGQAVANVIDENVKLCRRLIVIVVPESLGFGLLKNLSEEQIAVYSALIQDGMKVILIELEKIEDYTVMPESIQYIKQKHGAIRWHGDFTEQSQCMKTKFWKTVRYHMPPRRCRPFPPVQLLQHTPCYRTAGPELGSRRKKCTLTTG

T4: Human IL-1Rrp2/IL-1R6 protein, His Tag (ACROBiosystems, IL2-H52H6) (human, UniProt Q9HB29 20-335)
T4 construct: Bought protein; the soluble protein is likely only the extracellular part; also called hIL-36R; human IL36R antigen; not shown: His tag
T4 sequence: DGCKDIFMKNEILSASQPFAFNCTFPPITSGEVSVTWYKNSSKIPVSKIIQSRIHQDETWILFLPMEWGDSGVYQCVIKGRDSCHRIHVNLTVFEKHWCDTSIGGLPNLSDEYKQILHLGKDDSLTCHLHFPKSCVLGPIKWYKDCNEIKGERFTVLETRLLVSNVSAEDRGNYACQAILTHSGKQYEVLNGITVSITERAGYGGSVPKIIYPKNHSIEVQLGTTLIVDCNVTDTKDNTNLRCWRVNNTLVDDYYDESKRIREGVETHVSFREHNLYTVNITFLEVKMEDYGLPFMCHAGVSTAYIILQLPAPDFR


Assays:
[1] = target: T1, human IL-36R overexpressed on …; assay: cell-based or functional assay
[2] = target: T1, human IL-36R overexpressed on …; assay: cell-based or functional assay; remark: listed apart in the source
[3] = target: T1, human IL-36R overexpressed on …; assay: cell-based or functional assay; remark: listed apart in the source
[4] = target: T2, cynomolgus IL-36R overexpressed on …; assay: cell-based or functional assay
[5] = target: T2, cynomolgus IL-36R overexpressed on …; assay: cell-based or functional assay
[6] = target: T3, IL-36R naturally expressed on OVCAR8 …; assay: cell-based or functional assay
[7] = target: T3, IL-36R naturally expressed on OVCAR8 …; assay: cell-based or functional assay; remark: listed apart in the source
[8] = target: T3, IL-36R naturally expressed on OVCAR8 …; assay: cell-based or functional assay; remark: listed apart in the source
[9] = target: T4, Human IL-1Rrp2/IL-1R6 protein, His Tag …; assay: BLI (ForteBio Octet), antibody on ProA sensor, 1:1 model
Method: The affinity of anti-IL-36R antibodies to CynoIL36R-ECD mFc and human IL-1Rrp2/IL-IR6 protein, His Tag (ACROBiosystems, IL2-H52H6) was measured by a ForteBio molecular interaction instrument. […] And then the biosensor was used to bind CynoIL36R-ECD mFc or human IL-1Rrp2/IL-1R6 protein, His Tag which was diluted by a gradient (the initial concentration was 200 nM, 2-fold gradient dilution), the response signals were detected in real time using a Fortebio molecular interaction instrument (SARTORIUS, octet red 96e), and association and dissociation curves were obtained. After the completion of dissociation in each cycle, the biosensor was regenerated for the next capture; the procedure was repeated until the affinity of the different anti-IL-36R antibodies for IL-36R was determined. The resulting data were analyzed by Fortebio Data Analysis 11.0 software in a 1:1 (Langmuir) binding model to determine kₐ (kₒₙ) and kd (koff) values, and the dissociation constant KD was calculated by KD=kd/kₐ. The detection method essentially followed the manufacturer's recommendations, and more information could be found at www.fortebio.com.

[10] = target: T1, human IL-36R overexpressed on …; assay: FACS on 293T-hIL36R-NFκB cells, ratio of MFI to background MFI
Method: After the cells was washed with PBS, the cells were resuspended with 100 μL of PBS and then the fluorescence signal was detected using a flow cytometer (BD, Accuri C6). […] The ratio was the ratio of mean fluorescence intensity (MFI) of the experimental group/the background MFI, and the resulting data were analyzed using GraphPad Prism.

Binder	IC50; NFκB-luciferase reporter in 293T-hIL36R-NFκB cells stimulated with hIL36α, inhibition rate % [1]	IC50; NFκB-luciferase reporter in 293T-hIL36R-NFκB cells stimulated with hIL36β, inhibition rate % [2]	IC50; NFκB-luciferase reporter in 293T-hIL36R-NFκB cells stimulated with hIL36γ, inhibition rate % [3]	IC50; NFκB-luciferase reporter in 293T-CynoIL36R-NFκB cells stimulated with hIL36α, inhibition rate % [4]	IC50; NFκB-luciferase reporter in 293T-CynoIL36R-NFκB cells stimulated with hIL36β, inhibition rate % [5]	IC50; IL-8 production of OVCAR8 cells stimulated with hIL36α, inhibition rate % [6]	IC50; IL-8 production of OVCAR8 cells stimulated with hIL36β, inhibition rate % [7]	IC50; IL-8 production of NHK cells stimulated with hIL36α, inhibition rate % [8]	Kd [9]	koff [9]	kon [9]	EC50 [10]
BI655130 (antibody, human IgG1, kappa, L234A L235A, also called Spesolimab) heavy: not shown light: QIVLTQSPGTLSLSPGERATMTCTASSSVSSSYFHWYQQKPGQAPRLWIYRTSRLASGVPDRFSGSGSGTDFTLTISRLEPEDAATYYCHQFHRSPLTFGAGTKLEIKRTVAAPSVFIFPPSDEQLKSGTASVVCLLNNFYPREAKVQWKVDNALQSGNSQESVTEQDSKDSTYSLSSTLTLSKADYEKHKVYACEVTHQGLSSPVTKSFNRGEC	3.62 nM	2.45 nM	~13.2 nM	27.7 nM	56.3 nM	0.0927 nM	0.0755 nM	0.214 nM	0.22 nM	1.29e-05 s⁻¹	58600 M⁻¹ s⁻¹	7.02 nM
chimeric 84C4 antibody (antibody, human IgG4 S228P, kappa, Mouse variable regions on human IgG4 / kappa; also called xi84C4) heavy: not shown light: DILMTQSPSSLSASLGERVSLTCRASQDIGNALNWLQQAPDGTIKRLIYATSSLDPGVPKRFSGSRSGSDYSLTISSLASEDFVYYYCLQYASSPYTFGGGTKLEIKRTVAAPSVFIFPPSDEQLKSGTASVVCLLNNFYPREAKVQWKVDNALQSGNSQESVTEQDSKDSTYSLSSTLTLSKADYEKHKVYACEVTHQGLSSPVTKSFNRGEC		2.79 nM	~13.2 nM			0.0181 nM		1.02 nM	0.66 nM	7e-05 s⁻¹	106000 M⁻¹ s⁻¹	
chimeric 72C1 antibody (antibody, human IgG4 S228P, kappa, Mouse variable regions on human IgG4 / kappa; also called xi72C1) heavy: not shown light: EILLTQSPAIMSATLGEKVTMSCRASSNVRYMYWYQLKSGASPKLWIYLTSNLASGVPARFSGSGSGTSYSLTISSVEAEDAATYFCQQFTTSPYTFGGGTKLEIKRTVAAPSVFIFPPSDEQLKSGTASVVCLLNNFYPREAKVQWKVDNALQSGNSQESVTEQDSKDSTYSLSSTLTLSKADYEKHKVYACEVTHQGLSSPVTKSFNRGEC	8 nM			3.32 nM	3.6 nM		0.116 nM					6.47 nM

From patent US20240270857A1 (CHIA TAI TIANQING PHARMACEUTICAL GROUP, published 2024)
